Assay results published in paper PMC3731359 (PLoS ONE, 2013).
“Also recorded” adds a separate entry of the source.

T1: NAE (Homo sapiens, UniProt Q13564+Q8TBC4)
T1 construct: made in house; host or cells: E. coli BL21(DE3)pLysS
T1 sequence (Q8TBC4 22-463 limits assumed): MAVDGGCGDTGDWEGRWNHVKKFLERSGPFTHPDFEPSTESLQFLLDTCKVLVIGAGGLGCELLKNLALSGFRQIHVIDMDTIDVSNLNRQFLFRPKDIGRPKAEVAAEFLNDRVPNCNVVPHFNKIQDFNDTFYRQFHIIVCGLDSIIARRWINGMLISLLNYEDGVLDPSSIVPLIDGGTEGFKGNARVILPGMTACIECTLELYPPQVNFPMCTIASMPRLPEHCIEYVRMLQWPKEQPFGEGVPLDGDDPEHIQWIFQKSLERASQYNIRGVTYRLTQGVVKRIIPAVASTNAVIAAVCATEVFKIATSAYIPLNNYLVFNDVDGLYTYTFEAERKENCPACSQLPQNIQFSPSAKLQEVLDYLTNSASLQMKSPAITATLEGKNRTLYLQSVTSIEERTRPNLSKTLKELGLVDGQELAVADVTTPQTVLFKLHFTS
T1 sequence (Q13564 1-534 partner): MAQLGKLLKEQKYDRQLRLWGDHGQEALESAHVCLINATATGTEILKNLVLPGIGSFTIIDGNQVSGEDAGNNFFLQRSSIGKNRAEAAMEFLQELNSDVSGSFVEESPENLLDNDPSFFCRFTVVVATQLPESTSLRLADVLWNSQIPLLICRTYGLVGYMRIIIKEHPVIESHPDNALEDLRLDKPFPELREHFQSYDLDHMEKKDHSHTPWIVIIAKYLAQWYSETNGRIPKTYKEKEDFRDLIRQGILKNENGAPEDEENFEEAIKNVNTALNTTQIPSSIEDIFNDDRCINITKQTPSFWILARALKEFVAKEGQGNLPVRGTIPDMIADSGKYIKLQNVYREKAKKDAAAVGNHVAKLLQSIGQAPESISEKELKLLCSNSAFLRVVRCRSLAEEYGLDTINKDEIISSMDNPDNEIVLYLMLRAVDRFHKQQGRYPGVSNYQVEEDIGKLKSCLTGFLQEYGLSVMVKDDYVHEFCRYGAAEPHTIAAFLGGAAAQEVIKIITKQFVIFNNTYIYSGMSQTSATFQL

T2: Nedd8 activating enzyme (NAE), heterodimer of APPBP1 and Uba3 (UniProt Q13564 1-534; Q8TBC4 33-463)
T2 sequence 1: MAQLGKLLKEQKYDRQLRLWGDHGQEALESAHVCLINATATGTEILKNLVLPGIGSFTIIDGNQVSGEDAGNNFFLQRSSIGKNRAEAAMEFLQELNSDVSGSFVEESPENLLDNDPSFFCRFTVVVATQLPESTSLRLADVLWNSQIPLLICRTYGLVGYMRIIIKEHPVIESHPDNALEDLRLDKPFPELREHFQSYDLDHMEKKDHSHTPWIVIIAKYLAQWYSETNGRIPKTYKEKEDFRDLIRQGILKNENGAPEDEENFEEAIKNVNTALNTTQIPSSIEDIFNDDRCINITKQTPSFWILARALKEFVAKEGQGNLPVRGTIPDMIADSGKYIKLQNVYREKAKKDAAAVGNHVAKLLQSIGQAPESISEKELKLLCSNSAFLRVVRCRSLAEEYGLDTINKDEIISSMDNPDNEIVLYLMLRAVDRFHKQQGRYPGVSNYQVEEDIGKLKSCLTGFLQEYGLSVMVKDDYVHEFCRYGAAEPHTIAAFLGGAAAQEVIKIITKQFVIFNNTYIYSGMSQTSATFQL
T2 sequence 2: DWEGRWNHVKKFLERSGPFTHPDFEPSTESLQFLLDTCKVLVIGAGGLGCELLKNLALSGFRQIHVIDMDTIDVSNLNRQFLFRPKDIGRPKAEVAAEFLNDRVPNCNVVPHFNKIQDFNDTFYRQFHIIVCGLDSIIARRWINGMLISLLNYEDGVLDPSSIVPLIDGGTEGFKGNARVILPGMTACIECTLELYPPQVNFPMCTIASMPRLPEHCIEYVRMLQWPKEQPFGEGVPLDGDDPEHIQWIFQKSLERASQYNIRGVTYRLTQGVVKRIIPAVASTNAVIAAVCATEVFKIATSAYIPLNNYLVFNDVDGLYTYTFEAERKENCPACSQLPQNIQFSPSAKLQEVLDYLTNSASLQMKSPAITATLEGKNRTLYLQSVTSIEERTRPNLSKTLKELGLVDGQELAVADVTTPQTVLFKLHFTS


How the values were obtained:
NAE = target: T1, NAE; test: ATP/PPi exchange assay (NAE activation kinetics); assay type: biochemical; settings: 50 µM heptameric peptide, 0.5 µM NAE, 30 min, room temperature; versus background with no peptide added
Source text: We used the ATP/PPi exchange assay [28], [29] to measure the kinetics of NAE activation of UB mutants. In this assay, NAE catalyzes the condensation of UB with ATP to form a UB-AMP conjugate coupled to the release of PPi. Externally added PPi labeled with the radioactive isotope ^32P sets the reaction in reverse thus incorporating ^32PPi into ATP. Radioactive ATP formed in the reaction is captured by charcoal and quantified. The rate of ^32PPi exchange into ATP reflects the reactivities of NAE with the UB variants to form UB-AMP intermediates.
The reaction was incubated for 30 min at room temperature and then quenched by the addition of 0.5 mL slurry of charcoal in 2% trichloroacetic acid. After centrifugation, the charcoal pellet was washed 3 times each time with 1 mL 2% trichloroacetic acid, and eventually resuspended in 0.5 mL water and 3.5 mL Ultima Gold LSC-cocktail (Perkin Elmer). The radioactivity bound to charcoal was determined by liquid scintillation counting.
The reaction was incubated at room temperature for 5, 10, 15, 20 and 25 minutes before it was quenched with the addition of 0.5 mL slurry of charcoal in 2% trichloroacetic acid. The radioactivity incorporated into charcoal-bound ATP was measured by liquid scintillation counting. K1/2 and kcat values of the ATP-PPi exchange reaction were calculated by fitting the data to the Michaelis-Menten equation with the data analysis software Origin. To measure peptide activation by NAE, 0.1 µM NAE was used in the reaction with the concentration of the peptides varying from 10 µM to 1000 µM.

Ubc12 (E2) = test: Western blot: transfer of UB variants to Ubc12; assay type: biochemical; settings: 5 µM HA-tagged protein, 1 µM NAE, 1 µM Ubc12, 1 µM cullin, 1 mM ATP, 1 h, room temperature, anti-HA Western blot
Procedure: (§1) Figure 6 Transfer of phage selected UB variants to NAE (E1), Ubc12 (E2), and cullin-3. HA-tagged wt UB, wt Nedd8 and UB variants were used in the assay. In the control reaction, either Ubc12 or cullin-3 in complex with Rbx1 was missing. The blots were probed with a mouse anti-HA antibody and a goat anti-mouse IgG antibody linked to HRP.
(§2) 20 µL of the reaction mixture were loaded on a 4–15% SDS-PAGE gel (Bio-Rad). After electrophoresis, the protein bands were electroblotted onto a piece of polyvinylidene fluoride membrane (Bio-Rad). The membrane was blocked with 3% BSA in TBS buffer for 1 hour followed by incubation with 3% BSA in TBS buffer containing 1∶500 diluted 200 µg/mL anti-HA antibody (Santa Cruz Biotechnology) and 1∶10,000 diluted anti-mouse horseradish peroxidase conjugate (Pierce) for 1 hour, respectively. The membrane was then washed 5 times with TBS-T buffer and 5 times with TBS buffer followed by detection with the ECL luminescent detection kit (GE Healthcare).

cullin-3 = test: Western blot: transfer of UB variants to cullin-3; assay type: biochemical; settings: 5 µM HA-tagged protein, 1 µM NAE, 1 µM Ubc12, 1 µM cullin, 1 mM ATP, 1 h, room temperature, anti-HA Western blot
Procedure: as §1, §2

[1] = target: T2, Nedd8 activating enzyme (NAE), …; test: cell-based or functional assay

Row | Molecule | activation by NAE (NAE) | transfer from NAE to Ubc12 (UB∼Ubc12 conjugates) (Ubc12 (E2)) | transfer to cullin (cullin modification) (cullin-3) | kcat of the ATP/PPi exchange reaction catalyzed by NAE [1] [s⁻¹] | kcat/Km of the ATP/PPi exchange reaction catalyzed by NAE [1] [M⁻¹ s⁻¹] | Km (K1/2) of the ATP/PPi exchange reaction catalyzed by NAE [1] [µM]
1 | VAAAAGG [pN11, heptameric peptide VAAAAGG derived from UB variant N11] | not reactive with NAE |  |  |  |  | 
2 | N11: UB variant from phage selection, C-terminal sequence 71AAAAGG76 |  | can also be transferred from NAE to Ubc12 | substantial cullin modification at a level similar or exceeding that of wt Nedd8; also recorded: can also be transferred through the NAE-Ubc12 cascade to modify cullin at a similar level as N26 and the wt Nedd8 |  |  | 
3 | VLALRGG [peptide pN26 (70VLALRGG76)] |  |  |  | 0.433 | 4830 | 
4 | VWLSYGG [peptide pN1 (70VWLSYGG76)] |  |  |  | 0.4 | 3000 | 130
5 | VMLFYGG [peptide pN7 (70VMLFYGG76)] |  |  |  | 0.4 | 2670 | 155
